Values of other authors as cited in PMC4621241.

Target: MetQ (Escherichia coli) (UniProt P28635)
Sequence (P28635 23-271): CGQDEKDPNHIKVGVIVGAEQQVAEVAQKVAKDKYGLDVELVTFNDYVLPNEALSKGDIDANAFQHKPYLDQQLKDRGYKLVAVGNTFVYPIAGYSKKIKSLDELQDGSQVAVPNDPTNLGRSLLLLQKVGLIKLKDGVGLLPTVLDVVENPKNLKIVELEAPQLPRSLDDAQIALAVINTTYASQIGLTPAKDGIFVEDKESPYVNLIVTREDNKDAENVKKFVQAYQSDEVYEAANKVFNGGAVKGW

MetNI, sequence (P30750 whole entry): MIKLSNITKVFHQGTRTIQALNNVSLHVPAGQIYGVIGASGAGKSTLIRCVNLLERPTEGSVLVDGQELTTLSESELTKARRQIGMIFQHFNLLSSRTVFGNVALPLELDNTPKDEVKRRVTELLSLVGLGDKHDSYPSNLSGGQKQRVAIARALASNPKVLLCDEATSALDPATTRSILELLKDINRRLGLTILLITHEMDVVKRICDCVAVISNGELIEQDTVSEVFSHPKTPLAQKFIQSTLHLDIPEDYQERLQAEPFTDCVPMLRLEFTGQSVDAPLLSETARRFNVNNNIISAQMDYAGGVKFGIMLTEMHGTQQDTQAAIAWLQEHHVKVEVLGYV
MetNI, sequence (P31547 whole entry, further chain): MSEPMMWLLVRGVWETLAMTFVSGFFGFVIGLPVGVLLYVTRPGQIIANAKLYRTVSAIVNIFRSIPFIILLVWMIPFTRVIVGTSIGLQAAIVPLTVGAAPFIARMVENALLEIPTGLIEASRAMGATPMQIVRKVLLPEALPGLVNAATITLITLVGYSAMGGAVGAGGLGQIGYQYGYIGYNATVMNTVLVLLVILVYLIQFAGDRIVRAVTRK

Substance: MetNI (from UniProt P30750)
- Kd: 74 µM
